Laboratory results taken from publication PMC4439613, “TRIP13 is a protein-remodeling AAA+ ATPase that catalyzes MAD2 conformation switching” (eLife, 2015).

T1: PCH-2 (Caenorhabditis elegans, UniProt Q09535)
T1 construct: full-length (424 residues), N-terminal His6 tag removed with TEV protease, E. coli Rosetta 2 (DE3) pLysS
T1 sequence (Q09535 1-424): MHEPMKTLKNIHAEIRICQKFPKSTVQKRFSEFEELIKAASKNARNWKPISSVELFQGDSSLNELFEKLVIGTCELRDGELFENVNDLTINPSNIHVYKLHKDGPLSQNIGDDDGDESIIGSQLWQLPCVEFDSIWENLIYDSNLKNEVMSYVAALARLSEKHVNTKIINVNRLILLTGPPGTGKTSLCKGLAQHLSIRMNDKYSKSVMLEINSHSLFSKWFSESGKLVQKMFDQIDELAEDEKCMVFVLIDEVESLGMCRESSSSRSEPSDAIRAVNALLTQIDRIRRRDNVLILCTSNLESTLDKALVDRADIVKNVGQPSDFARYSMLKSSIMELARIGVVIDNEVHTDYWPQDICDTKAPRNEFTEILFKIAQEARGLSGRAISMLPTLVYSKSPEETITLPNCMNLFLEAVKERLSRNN

T2: M. musculus TRIP13^E253Q (M. musculus, UniProt Q3UA06 1-432, E253Q)
T2 construct: TRIP13, M. musculus, full length, Walker B mutation E253Q; also called Walker B mutant; ATP hydrolysis-defective TRIP13; source: E. coli Rosetta 2 (DE3) pLysS, purified (Ni-NTA, Hitrap Q ion exchange, Superdex 200 SEC); not shown: His6, N-terminal, cleaved
T2 sequence (looked up): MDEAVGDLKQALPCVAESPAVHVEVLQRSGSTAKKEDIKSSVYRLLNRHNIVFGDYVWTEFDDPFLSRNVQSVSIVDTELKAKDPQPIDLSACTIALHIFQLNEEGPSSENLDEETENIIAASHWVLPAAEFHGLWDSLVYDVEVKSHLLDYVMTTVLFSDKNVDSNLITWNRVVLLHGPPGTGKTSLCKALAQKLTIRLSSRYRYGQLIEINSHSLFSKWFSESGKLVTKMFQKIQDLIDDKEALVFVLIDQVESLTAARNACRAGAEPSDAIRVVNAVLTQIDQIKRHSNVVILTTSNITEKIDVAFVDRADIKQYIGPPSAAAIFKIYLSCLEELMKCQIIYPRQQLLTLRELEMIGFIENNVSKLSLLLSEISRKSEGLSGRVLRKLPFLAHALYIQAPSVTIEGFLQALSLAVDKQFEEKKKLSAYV

B1: M. musculus p31(comet):C-MAD2^R133A complex (complex)
chain 1: MAASGEEDMSELSPAAAPNLDWYEKPEETHAPEVDLETVIPPAQEPSNPAEPFCPRDLVPVVFPGPVSQEDCCQFTCELLKHILYQRHQLPLPYEQLKHFYRKVPQAEDTARKKAWLATEARNRKCQQALAELESVLSHLRDFFARTLVPQVLILLGGNALSPKEFYELDLSRLAPFGVDQGLNTAACLRRLFRAIFLADPFSELQTPPLMGTIVMVQGHRDCGEDWFQPKLNYRVPSRGHKLTVTLSCGRPSVPAMASEDYIWFQAPVTLKGFHE
chain 2: MAQQLAREQGITLRGSAEIVAEFFSFGINSILYQRGIYPSETFTRVQKYGLTLLTTTDPELIKYLNNVVEQLKEWLYKCSVQKLVVVISNIESGEVLERWQFDIECDKTAKEEGVRREKSQKAIQDEIRSVIAQITATVTFLPLLEVSCSFDLLIYTDKDLVVPEKWEESGPQFITNCEEVRLRSFTTTIHKVNSMVAYKTPVND
notes: p31(comet), M. musculus, full length; MAD2, M. musculus, full length, R133A, closed conformer; Heterodimer of m12 and m9; also called p31(comet):MAD2; source: formed from separately purified proteins (E. coli Rosetta 2 (DE3) pLysS); not shown: His6, N-terminal, cleaved; copies: 1 + 1

Assays:
PCH-2 = molecular target: T1, PCH-2; test: X-ray crystal structure, […] Å; type: binding; conditions: ATPase active site of chains B and E; ADP co-purified, no nucleotide added
M. musculus TRIP13^E253Q [1] = molecular target: T2, M. musculus TRIP13^E253Q; test: SEC-MALS; TRIP13^E253Q with p31(comet) and C-MAD2^R133A, protocol as for the size exclusion analysis; conditions: both partners purified
M. musculus TRIP13^E253Q [2] = molecular target: T2, M. musculus TRIP13^E253Q; test: SEC; equimolar (10 nanomoles each) TRIP13^E253Q, p31(comet) and C-MAD2^R133A in 300 μl, 20 mM Tris-HCl pH 7.5, 300 mM NaCl, 2 mM ATP, on ice 30 min; Superdex 200 Increase 10/300 GL with 0.1 mM ATP; Coomassie gels of fractions; conditions: both partners purified

| Molecule | X-ray crystal structure, 2.3 Å (PCH-2) | stoichiometry N (M. musculus TRIP13^E253Q [1]) | stoichiometry N (M. musculus TRIP13^E253Q [2]) |
| --- | --- | --- | --- |
| Nc1ncnc2c1ncn2[C@@H]1O[C@H](COP(=O)(O)OP(=O)(O)O)[C@@H](O)[C@H]1O [ADP] | two subunits in the hexamer (chains B and E) are bound to ADP |  |  |
| B1 |  | ~1 copy per TRIP13 hexamer | ~6 TRIP13^E253Q : p31(comet):MAD2 (molar ratio) |
